Test results published in patent publication US7906477B2, “Activation of peptide prodrugs by hK2” (Genspera, Inc., priority 2002, dated 2011).

Assays:
[1] = test system: T1, Cc1cc(=O)oc2cc(NC(=O)[C@H](CCCNC(=N)N)NC(=O)[C@H](Cc3ccccc3)NC(=O)[C@H](C)NC(=O)[C@H](CCCCN)NC(=O)CN)ccc12; assay: hK2 mediated hydrolysis of peptide substrates in solution (fluorescence); type: biochemical, human; settings: other: Lineweaver-Burke reciprocal plots; 37.0 °C
T1 construct: made in house

[2] = test system: T2, C[C@H](NC(=O)[C@H](CCCCN)NC(=O)CNC(=O)[C@@H](N)Cc1ccc(O)c([N+](=O)[O-])c1)C(=O)N[C@@H](Cc1ccccc1)C(=O)N[C@@H](CCCNC(=N)N)C(=O)N[C@@H](CCCNC(=N)N)C(=O)N[C@@H](CN)C(=O)N[C@@H](Cc1ccccc1)C(=O)N[C@@H](CCCCNC(=O)c1ccccc1N)C(=O)O; assay: as above; type: biochemical, human; settings: other: Lineweaver-Burke reciprocal plots; 37.0 °C
T2 construct: made in house
Protocol: FIG. 2 depicts a graph of hK2 mediated hydrolysis of peptide substrates identified through the screening of a random peptide library [Y′GKARAF-Dap-FK′ (SEQ ID NO:36), Y′GKAKPR-Dap-FK′ (SEQ ID NO:37), Y′GKAFRR-Dap-FK′ (SEQ ID NO:38), Y′GKAMRQ-Dap-FK′ (SEQ ID NO:39) and Y′GSKGHFKL-Dap-F-K′ (SEQ ID NO:40)]. Substrates (250 μM) were incubated with 8 μg/ml hK2 in PBS buffer. Hydrolysis of peptide results in increased fluorescence, as measured using a 96 well fluorometer. […] To determine 100% digestion, trypsin was added (50 mg/ml) and samples were incubated to 37° C. for 30 min and the fluorescence was determined. The percentage digested is determined by dividing fluorescence units of sample by fluorescence units of control fully digested peptide.
A mutant form of hK2 was utilized in which the amino acids −5 to −1 of the propeptide sequence of hK2 (i.e. Leu-Ile-Gln-Ser-Arg; SEQ ID NO:15) were mutated to Asp-Asp-Asp-Asp-Lys (SEQ ID NO:16) to generate a pro-hK2 protein that can be activated to functional hK2 by […] (Lovgren, J. et al. (1999) Eur. J. Biochem. 266:1050-1055). […]
For validation of the Edman results, peptides were re-synthesized using a Rainin PS3 peptide synthesizer with HBTU/NMM activation. […] Fluorescence measurements were performed on a Fluoroskan II 96-well plate reader (ICN biomedicals, Costa Mesa, Calif.; excitation, 355 nm; emission, 460 nm). Kinetic parameters were calculated as described earlier (Denmeade, S. R. et al. (1997) Cancer Res. 57:4924-4930).
The combinatorial screen identified seven arginine-containing peptides. […] All four arginine-containing sequences that were re-synthesized reproduced fluorescence when these peptides were digested on-bead with hK2. For a more quantitative analysis, the fluorescence-quenched peptides were cleaved off the resin and purified by HPLC. The rate of hydrolysis was quantified by measuring increase in fluorescence (Figure). […] In subsequent studies, hydrolysis rates using the Y′GKAFRR-Dap-F-K′ (SEQ ID NO:38) peptide were analyzed by Lineweaver-Burke reciprocal plots.

hK2 (Homo sapiens)
Km [1]: 146 µM
kcat [1]: 0.13 s⁻¹
kcat/Km [1]: 895 M⁻¹ s⁻¹
Km [2]: 26.5 µM
kcat [2]: 1.09 s⁻¹
kcat/Km [2]: 41,132 sec^−1 M^−1
